Test results reported in paper doi:10.1101/509141.
Like-named read-outs stand apart in the source and are kept apart here.

How the values were obtained:
Assay in all cases: BLI
[1] = target: Bacteriophage Sf6, whole virions (bacteriophage Sf6)
[2] = target: Bacteriophage Sf6, whole virions (bacteriophage Sf6); remark: listed apart in the source
[3] = target: Bacteriophage Sf6, whole virions (bacteriophage Sf6); remark: listed apart in the source
[4] = target: Bacteriophage Sf6, whole virions (bacteriophage Sf6); remark: listed apart in the source

OmpA-TM_(E.coli), transmembrane domain of E. coli outer membrane protein A (domain or fragment)
Kd [1]: 25 nM

OmpA-TM_(S.flex), transmembrane domain of S. flexneri outer membrane protein A (domain or fragment)
Kd [2]: 99.6 nM | Kd [3]: 82.3 nM | Kd [1]: 36 nM | Kd [4]: 89.9 nM

S. flexneri OmpA-TM N155E (domain or fragment)
Kd [1]: 6.9 to 65.4 nM
